The results in this text go back to patent publication US20090130760A1 (ST MARIANNA UNIVERSITY SCHOOL OF MEDICINE, published 2009).

The target of the test is T1, GST (UniProt P08515 1-218 = GST).
T1 construct: Control of the GST pull-down
Put plainly: GST pull-down on glutathione-agarose beads, SDS-PAGE and Sypro Ruby stain. The protocol:
The proteins bound to the beads were separated by SDS-PAGE and stained with Sypro Ruby.
Four micrograms of the GST fusion protein was mixed with 4 μg of His-BARD1¹⁴⁻¹⁸⁹ and 25 μl of glutathione-agarose beads in 1 ml of a buffer containing 50 mM Tris-HCl (pH 7.5), 0.5% NP-40, 150 mM NaCl, 50 mM NaF and 1 mM dithiothreitol. After rotation at 4° C. for 2 hours, GST fusion proteins bound to glutathione-agarose beads were washed three times and subsequently eluted with SDS-PAGE loading buffer.

T1 sequence (P08515 whole entry): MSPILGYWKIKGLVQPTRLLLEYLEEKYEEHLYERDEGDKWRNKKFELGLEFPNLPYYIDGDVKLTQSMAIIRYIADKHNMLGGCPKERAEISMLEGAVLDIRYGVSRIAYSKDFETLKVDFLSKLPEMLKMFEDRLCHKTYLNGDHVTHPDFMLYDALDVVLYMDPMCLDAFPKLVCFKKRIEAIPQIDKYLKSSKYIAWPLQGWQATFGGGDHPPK

B1: His-BARD1^14-189 (other)
chain: IRSGNEPRSAPAMEPDGRGAWAHSRAALDRLEKLLRCSRCTNILREPVCLGGCEHIFCSNCVSDCIGTGCPVCYTPAWIQDLKINRQLDSMIQLCSKLRNLLHDNELSDLKEDKPRKSLFNDAGNKKNSIKMWFSPRSKKVRYVVSKASVQTQPAIKKDASAQQDSYEFVSPSPPA
notes: Bacterially expressed recombinant protein; not shown: His tag
As for B1, the binding result is given as “no binding (tested: 4 µg of each protein in 1 ml)”.
